Data published in PMC9942873 (Immunity, 2023).
Where a chain is given by its changes, count along the chain named.

B1: RUPA-117 (antibody, V domains shown)
VH: QLQLQESGPGLVKPSETLSLTCTVSGGSISRSPYYWGWIRQPPGKGLEWFGSVYNNGSTYYNPSLKSRVTISVDTSKNQFSLKLSSVTAADTALYYCARHGGSTGMKVVVIAPPDYWGQGTLVTVSS
VL: DIQMTQSPATLSASVGDRVTITCRASQSISIWLAWYQQKPGEAPKLLIYKASSLQSGVPSRFSGSASGTKFSLTISSLQPDDFATFYCQQYHSYPYTFGQGTKLEIK
notes: human IgG1; source: recombinant human IgG1, 293T (Protein A purified) or GenScript
B2: RUPA-140 (antibody, V domains shown)
VH: EVQLLESGGGLVQPGGSLRLSCVASGFSFSNFAMNWVRQAPGKGLEWVSAISGSGGSTYYIDSVKGRFSISRDTSKNTLYLQMNSLRAEDTAVYYCAKVGGRSIFGEATDYWGQGSLVTVSS
VL: DIQMTQSPSSLSASVGDRVTITCRASQSINKYLNWYQQKPGRAPKLLIQVASSLQSGVPSRFSGSGSGTDFTLTISSLQPEDFATYYCQQTYTLPLIFGGGTKVEIK
notes: source: recombinant human IgG1, 293T (Protein A purified) or GenScript
B3: RUPA-154 (antibody, V domains shown)
VH: QVQLVQSGAEVRKPGASVKVSCRTSGYTFTDYYMHWVRQAPGEGLEWMGSINPKSGGTSYAERFQGRVTMTMETSVSTAYLDLSSLRSDDTAVYYCARLLYSRAVYYYGMDVWGQGTTVTVSS
VL: SYELTQPPSVSVAPGKTARITCGGKDLGSKSVHWYQQKPGQAPVLVIYYDNIRPSGIPERFSGSNSGNTATLTISRVEAGDEADYYCQVWDSSSDHYVFGRGAKVTVL
notes: as for B1
B4: RUPA-160 (antibody, V domains shown)
VH: QVQLVQSGAEVKKPGASVKASCKASGYTFDNFDIIWARQATGQGLEWMGWMNPNTGKKGYAQNLKDRVTMTRDSSISTAYLELSSLRSEDTAVYYCVRAVGSYYGSGGWFDPWGQGTLVTVSS
VL: QSVLTQPPSASGTPGQRVTIACSGSSSNIGGNNVKWYQQLPGTAPKLVIYNNDERPPGVPDRVSGSKSGTSASLAISGVQSEDEADYYCATWDDSMKREVFGGGTKLTVL
notes: as for B1
B5: RUPA-154 (hIgG1) (antibody, V domains shown)
VH: B3 VH
VL: B3 VL
notes: IgG1; source: 293T cells, purified (Protein A), or produced as recombinant human IgG1 (GenScript)
B6: RUPA-29 (hIgG1) (antibody, V domains shown)
VH: QVHLVESGGGVVQPGRSLRLSCAASGFTFRSYGMHWVRLAPGKGLEWVTAIWYDGSKKHFADSVKGRFTISRDNSKNTLYLQMSSLRVEDTAVYYCARDFAHGAFYPVDWGRGTLVTVSS
VL: SYELTQPPSVSVSPGQTARITCSGDALPKKHAYWYQQKSGQAPVLVIYDDSKRPSGIPERFSGSSSGTMATLSISGAQVEDEAAYYCYSSDTSANYWVFGGGTKLTVL
notes: as for B5
B7: RUPA-50 (hIgG1) (antibody, V domains shown)
VH: QVHLVESGGGVVQPGRSLRLSCAASGFTFRSYGMHWVRRVPGKGLEWVATISYDETFKDYPDSVKGRFTISRDNSKNTLFLQMNSLRPADTAVYYCAKDRAHSMHYFEYWGRGTLVTVSS
VL: SYELTQPPSVSVSPGQTARLTCSGDALPKKFAYWYQLKSGQAPVLVIYEDSKRPSGIPERFSGSSSGTTATLTISGAQVEDEADYYCYSRDGSGDQKNIFGGGTKLTVL
notes: as for B5
B8: RUPA-54 (hIgG1) (antibody, V domains shown)
VH: QVQLVESGGGVVQPGRSLRLSCTASGFTFRSYGIHWVRQAPGKGLQWVAFISYDGRNKYYADSVKGRFTISRDNSKNTLYLQMSGLRADDTAVYYCAKDSDNDCTATSCYTVSWGQGTLVTVSS
VL: SYELTQPPSVSVSPGQTARITCSGDALPKKYAYWYQQKSGQAPVLVIYEDKKRPSGIPERFSGSSSGTMATLTISGAQVEDEADYYCYSTDSRTDHGGIFGGGTKLTVL
notes: as for B5
B9: RUPA-100 (hIgG1) (antibody, V domains shown)
VH: QVQLVESGGGVVQPGRSLRLSCAASGFSFSHYGMHWVRQAPGKGLEWVAVISYDGNYKYYGDSVKGRFTISRDNFKNTLYLQMNSLRPEDTAVYYCAKGKAHSCVSTSCYTDFWGQGTLVTVPS
VL: B8 VL with K51S, A83G, R93S, T94Y, D95N, G97R, I99V
notes: as for B5
B10: RUPA-58 (hIgG1) (antibody, V domains shown)
VH: QVQLVQSGPEAKKPGASVKVSCQASGYPFSGYYMHWLRQAPGQGLEWMGWMNPNSGGTKYAQRFQGRVTMTRDTSISTAHMELRGLRSDDTAVYYCARDYCTGSSCYRTDYDYWGQGTLVTVSS
VL: DIQMTQSPSSLSASVGDRVTITCRASQIISTYLNWYQHKPGKAPKLLIKSASTLQSGVPSRFSGSGSGTDFTLTITSLQPEDFATFYCQQSYRDPITFGQGTRLEIK
notes: as for B5
B11: RUPA-160 (hIgG1) (antibody, V domains shown)
VH: B4 VH
VL: B4 VL
notes: as for B5
B12: RUPA-25 (hIgG1) (antibody, V domains shown)
VH: QVQLVQSGAEVKKPGASVKVSCTASGYNFLTHDISWVRQATGQGLEWMGWMNPNTGKKGYVQKFQGRVTMDRDMSKSTAYMELRSLTSEDTAVYYCVRGVGSYYGSGGWFDPWGQGTLVTVSS
VL: QPVLTQPPSASETPGQKVTISCSGSSSNIGSDTVSWYVQLPGTAPKLLIYNDNQRPSGVPDRFSGSKSGTSASLAISGLQSEDEADYYCATWDASLKRRVFGGGTTLTVL
notes: as for B5

Legend:
Test in all cases: ELISA
Conditions in all cases: both partners purified
[1] = target: recombinant full-length Pfs48/45 (Plasmodium falciparum 3D7, UniProt Q8I6T1)
recombinant full-length Pfs48/45, sequence (Q8I6T1 28-428): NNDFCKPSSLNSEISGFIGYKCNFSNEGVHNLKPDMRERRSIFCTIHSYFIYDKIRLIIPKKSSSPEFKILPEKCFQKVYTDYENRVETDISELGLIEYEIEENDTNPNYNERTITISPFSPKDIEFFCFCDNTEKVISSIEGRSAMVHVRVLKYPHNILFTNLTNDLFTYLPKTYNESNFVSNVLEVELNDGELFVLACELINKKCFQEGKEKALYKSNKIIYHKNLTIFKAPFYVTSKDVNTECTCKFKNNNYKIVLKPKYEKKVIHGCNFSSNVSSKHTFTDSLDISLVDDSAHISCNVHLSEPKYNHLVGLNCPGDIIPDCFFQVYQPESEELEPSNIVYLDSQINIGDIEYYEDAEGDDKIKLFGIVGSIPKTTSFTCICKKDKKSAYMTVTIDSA

[2] = target: Pfs48/45 D2-3 (Plasmodium falciparum 3D7, UniProt Q8I6T1)
Pfs48/45 D2-3, sequence (Q8I6T1 184-428): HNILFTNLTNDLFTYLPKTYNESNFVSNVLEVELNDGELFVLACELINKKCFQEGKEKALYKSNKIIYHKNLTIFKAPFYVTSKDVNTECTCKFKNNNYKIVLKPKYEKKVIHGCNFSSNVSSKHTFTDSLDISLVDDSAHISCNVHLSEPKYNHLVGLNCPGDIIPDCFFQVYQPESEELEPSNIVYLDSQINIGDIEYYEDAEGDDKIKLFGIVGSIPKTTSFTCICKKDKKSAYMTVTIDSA

[3] = target: Pfs48/45 D3 (Plasmodium falciparum 3D7, UniProt Q8I6T1)
Pfs48/45 D3, sequence (Q8I6T1 287-428): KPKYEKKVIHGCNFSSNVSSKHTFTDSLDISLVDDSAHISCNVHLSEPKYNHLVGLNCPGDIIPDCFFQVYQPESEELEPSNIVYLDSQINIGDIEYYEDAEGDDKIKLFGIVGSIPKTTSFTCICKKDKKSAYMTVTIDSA

[4] = target: Pfs48/45 D1-2 (Plasmodium falciparum 3D7, UniProt Q8I6T1)
Pfs48/45 D1-2, sequence (Q8I6T1 28-289): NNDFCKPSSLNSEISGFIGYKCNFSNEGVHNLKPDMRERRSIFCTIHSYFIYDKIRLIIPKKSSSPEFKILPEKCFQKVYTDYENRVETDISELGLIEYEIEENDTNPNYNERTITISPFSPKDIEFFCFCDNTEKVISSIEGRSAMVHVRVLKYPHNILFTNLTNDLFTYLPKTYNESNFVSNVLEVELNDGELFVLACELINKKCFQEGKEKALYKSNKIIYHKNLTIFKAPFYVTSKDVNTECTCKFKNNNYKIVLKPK

[5] = target: Pfs48/45 D1-2 (N28-K289) (Plasmodium falciparum 3D7, UniProt Q8I6T1)
Pfs48/45 D1-2 (N28-K289), sequence (Q8I6T1 whole entry, looked up): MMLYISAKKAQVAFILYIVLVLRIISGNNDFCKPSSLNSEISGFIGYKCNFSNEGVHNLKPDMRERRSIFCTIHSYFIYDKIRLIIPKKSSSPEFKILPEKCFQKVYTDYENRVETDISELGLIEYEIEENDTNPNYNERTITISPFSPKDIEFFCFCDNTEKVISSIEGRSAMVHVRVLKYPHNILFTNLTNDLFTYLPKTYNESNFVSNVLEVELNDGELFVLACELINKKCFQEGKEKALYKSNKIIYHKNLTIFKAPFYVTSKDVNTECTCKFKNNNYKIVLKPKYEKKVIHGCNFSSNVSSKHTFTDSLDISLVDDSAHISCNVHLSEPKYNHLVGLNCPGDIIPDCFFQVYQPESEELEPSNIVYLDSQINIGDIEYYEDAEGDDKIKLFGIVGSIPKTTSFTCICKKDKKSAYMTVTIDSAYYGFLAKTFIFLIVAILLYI

[6] = target: Pfs48/45 D2-3 (H184-A428) (Plasmodium falciparum 3D7, UniProt Q8I6T1)
Pfs48/45 D2-3 (H184-A428), sequence (Q8I6T1 whole entry, looked up): as above

[7] = target: Pfs48/45 D3 (K287-A428) (Plasmodium falciparum 3D7, UniProt Q8I6T1)
Pfs48/45 D3 (K287-A428), sequence (Q8I6T1 whole entry, looked up): as above

Binder | binding result [1] | binding result [2] | binding result [3] | binding result [5] | binding result [7] | further results
B1 | binds | binds | binds | – | – | –
B2 | binds | binds | binds | – | – | –
B3 | binds | binds | binds | – | – | binding result [4]: binds
B4 | binds | binds | no binding (tested: 10 ug/ml) | – | – | binding result [4]: binds
B5 | – | – | – | binds | binds | binding result [6]: binds
B6 | – | – | – | – | binds | –
B7 | – | – | – | – | binds | –
B8 | – | – | – | – | binds | –
B9 | – | – | – | – | binds | –
B10 | – | – | – | binds | – | –
B11 | – | – | – | binds | – | binding result [6]: binds
B12 | – | – | – | binds | – | binding result [6]: binds
